For test [1], the target named is T1, human LAG-3 expressed on NSO cells (human, UniProt P18627 29-525).
T1 sequence: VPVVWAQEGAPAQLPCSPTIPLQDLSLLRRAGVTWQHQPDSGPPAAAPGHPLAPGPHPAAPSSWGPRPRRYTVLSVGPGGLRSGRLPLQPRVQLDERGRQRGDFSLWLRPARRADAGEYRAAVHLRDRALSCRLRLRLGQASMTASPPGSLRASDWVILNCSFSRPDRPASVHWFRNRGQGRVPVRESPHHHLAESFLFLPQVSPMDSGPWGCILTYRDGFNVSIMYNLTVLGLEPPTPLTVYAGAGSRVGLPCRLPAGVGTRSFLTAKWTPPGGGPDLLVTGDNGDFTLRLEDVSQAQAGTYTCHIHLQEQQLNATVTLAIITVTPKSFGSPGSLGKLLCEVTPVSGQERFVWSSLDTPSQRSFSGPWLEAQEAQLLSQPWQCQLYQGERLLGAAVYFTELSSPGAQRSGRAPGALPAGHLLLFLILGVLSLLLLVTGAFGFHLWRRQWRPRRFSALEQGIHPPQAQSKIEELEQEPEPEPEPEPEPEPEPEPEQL
Kind of test: FACS saturation binding to NSO cells expressing LAG-3; SM; SD 0.3430.

Test [2] addresses T2, biotinylated-soluble human LAG-3-Fc fusion protein (human, UniProt P18627 23-450, biotinylated (site not stated)).
T2 construct: whole entry named; also called shLAG-3; shLAG-3-Fc; not shown: Fc
T2 sequence: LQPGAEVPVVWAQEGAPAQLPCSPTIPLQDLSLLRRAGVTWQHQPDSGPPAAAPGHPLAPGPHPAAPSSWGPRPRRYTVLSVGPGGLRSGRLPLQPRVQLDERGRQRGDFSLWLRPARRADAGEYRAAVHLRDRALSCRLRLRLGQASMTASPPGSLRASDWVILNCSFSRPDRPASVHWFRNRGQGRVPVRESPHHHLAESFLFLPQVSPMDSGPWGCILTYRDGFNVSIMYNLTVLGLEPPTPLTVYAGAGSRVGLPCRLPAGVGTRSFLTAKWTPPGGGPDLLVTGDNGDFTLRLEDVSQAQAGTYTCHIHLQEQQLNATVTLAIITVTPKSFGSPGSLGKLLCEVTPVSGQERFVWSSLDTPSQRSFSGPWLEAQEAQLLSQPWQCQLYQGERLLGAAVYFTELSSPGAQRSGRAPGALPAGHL
Description: FACS: inhibition of shLAG-3-Fc binding to MHC II on Daudi cells (column head prints EC50); SM; SD 0.1409. (In general: A flow cytometer gives signals particle by particle.)

Test [3] addresses T1, human LAG-3 expressed on NSO cells. Kind of test: FACS saturation binding to NSO cells expressing LAG-3; SM; SD 0.1376.
Test [4] has as its target T2, biotinylated-soluble human LAG-3-Fc …. Description: FACS: inhibition of shLAG-3-Fc binding to MHC II on Daudi cells (column head prints EC50); SM; SD 0.1900.
For test [5] the target is unchanged. Description: FACS: inhibition of shLAG-3-Fc binding to MHC II on Daudi cells (column head prints EC50); SM; SD 0.3407.
The target of test [6] is T1, human LAG-3 expressed on NSO cells. Kind of test: FACS saturation binding to NSO cells expressing LAG-3; SM; SD 0.1660.

As a reminder, the EC50 is the concentration giving half of the maximal effect. A low value points to a more potent agent. What is called IC50 is the midpoint of a concentration-inhibition curve.

B1: hLAG-3 mAb 1 (1.4) IgG1 (AA) (antibody, V domains shown)
VH: QVQLVQSGAEVKKPGASVKVSCKASGYTFTNYGMNWVRQAPGQGLEWMGWINTYTGESTYADDFEGRFVFSMDTSASTAYLQISSLKAEDTAVYYCARESLYDYYSMDYWGQGTTVTVSS
VL: DIVMTQTPLSLSVTPGQPASISCKSSQSLLHSDAKTYLNWLLQKPGQPPERLIYLVSELDSGVPDRFSGSGSGTDFTLKISRVEAEDVGVYYCWQGTHFPYTFGGGTKVEIK
In test [1], B1 showed a concentration for a half-maximal effect (EC50) of 607 nM. Further, the half-inhibitory concentration (IC50) in test [2] was 364 nM.

B2: LAG-3 mAb A IgG4 (P) (antibody, V domains shown)
VH: QVQLQQWGAGLLKPSETLSLTCAVYGGSFSDYYWNWIRQPPGKGLEWIGEINHNGNTNSNPSLKSRVTLSLDTSKNQFSLKLRSVTAADTAVYYCAFGYSDYEYNWFDPWGQGTLVTVSS
VL: EIVLTQSPATLSLSPGERATLSCRASQSISSYLAWYQQKPGQAPRLLIYDASNRATGIPARFSGSGSGTDFTLTISSLEPEDFAVYYCQQRSNWPLTFGQGTNLEIK
notes: IgG4 (P); also called 25F7
Consider B2, for which, in test [3], the half-maximal effective concentration (EC50) was 597 nM. In test [4], the IC50 was 701 nM.

B3: LAG-3 mAb A IgG1 (AA) (antibody, V domains shown)
VH: QVQLQQWGAGLLKPSETLSLTCAVYGGSFSDYYWNWIRQPPGKGLEWIGEINHNGNTNSNPSLKSRVTLSLDTSKNQFSLKLRSVTAADTAVYYCAFGYSDYEYNWFDPWGQGTLVTVSS
VL: EIVLTQSPATLSLSPGERATLSCRASQSISSYLAWYQQKPGQAPRLLIYDASNRATGIPARFSGSGSGTDFTLTISSLEPEDFAVYYCQQRSNWPLTFGQGTNLEIK
notes: IgG1 (AA)
In turn, B3 came in with an IC50 in test [5] of 592 nM. A half-maximal effect in test [6] (EC50) was put at 452 nM.
